Measurements reported in patent US20120094909A1 (Bristol-Myers Squibb, published 2012).
Where two headings read alike, the source gives them in different places.

Assays:
[1] = molecular target: T1, human PCSK9 (proprotein convertase subtilisin kexin type 9) (human, UniProt Q8NBP7 31-692); test: FRET direct binding, anti-his6 antibody
T1 construct: Directly immobilized (SPR ProteOn), biotinylated (BLI), or in solution, depending on the assay; also called hPCSK9
Description: (§1) Table 11 summarizes the overall data from these three FRET assays.

cynomolgus monkey PCSK9 = cynomolgus monkey PCSK9 (cynomolgus monkey, UniProt A0A7N9D9N8 150-747); test: FRET, competitor EGFA peptide
Description: as §1

[2] = molecular target: T1, human PCSK9 (proprotein convertase …); test: FRET, competitor EGFA peptide
Description: as §1

[3] = molecular target: T1, human PCSK9 (proprotein convertase …); test: BLI, biotinylated hPCSK9 on sensor tips
Description: (§2) Tips were then immersed into a buffer-only well for observation of Adnectin dissociation. Experiments were performed in a temperature controlled environment at either 25 or 37° C., and the oscillation speed was set at 1500 rpm.
(§3) Binding interaction analysis was performed using proprietary software from Fortebio (Fortebio Data Analysis Software version 6.3.0.36). Global fits were performed for all samples, using a 1:1 binding model. The nature of these global fits constrained all values of concentration to a single pair of association and dissociation rates that were themselves constrained to each other. Affinities (KD), association and dissociation rates were averaged over the various loading levels used in the analysis.

[4] = molecular target: T1, human PCSK9 (proprotein convertase …); test: BLI Octet Red, 37 C
Description: as §2, §3

[5] = molecular target: T1, human PCSK9 (proprotein convertase …); test: FRET, competitor ATI001125
Description: as §1

[6] = molecular target: T2, human PCSK9 (proprotein convertase subtilisin kexin type 9) (human, UniProt Q8NBP7 31-692); test: PCSK9:EGFA FRET, competitor EGFA peptide
T2 construct: immobilized directly (ProteOn), biotinylated (Octet) or in solution, according to the assay; also called hPCSK9; PCSK9-AF647 (labelled form)

[7] = molecular target: T2, human PCSK9 (proprotein convertase …); test: SPR (ProteOn), 25 C
[8] = molecular target: T2, human PCSK9 (proprotein convertase …); test: cell-based or functional assay
[9] = molecular target: T2, human PCSK9 (proprotein convertase …); test: cell-based or functional assay; remark: listed apart in the source
[10] = molecular target: T1, human PCSK9 (proprotein convertase …); test: cell-based or functional assay; remark: listed apart in the source
[11] = molecular target: T1, human PCSK9 (proprotein convertase …); test: FRET, competitor ATI000972
Description: as §1

Binder | EC50 [1] | EC50 (cynomolgus monkey PCSK9) | EC50 [2] | IC50 [2] | Kd [3] | koff [3] | kon [3] | Kd [4] | IC50 [5] | EC50 [6] | Kd [7] | LDLR Depletion (% inhibition at 75 nM) [8] | LDLR Depletion EC50 [8] | EC50 (nM), PCSK9-induced LDLR depletion from HepG2 cell surface [9] | percentage of PCSK9 inhibition at 75 nM [9] | IC50 (cynomolgus monkey PCSK9) | LDLR Depletion EC50 [10] | IC50 [11]
2381H09 (designed binder, Anti-PCSK9 Adnectin, His6-tagged) MGVSDVPRDLEVVAATPTSLLISWDAPAGGGYGYYRITYGETGGNSPVQEFTVPVSKGTATISGLKPGVDYTITVYAVEFDFVGAGYYHRPISINYRTEIDKPSQHHHHHH | 4.1 nM | 20.2 nM | 3.4 nM | 3.4 nM | 3.23 nM | 0.00046 s⁻¹ | 136000 M⁻¹ s⁻¹ | 3.23 nM | 0.5 nM | – | – | – | – | – | – | – | – | –
2382H03 (designed binder, Anti-PCSK9 Adnectin, His6-tagged) MGVSDVPRDLEVVAATPTSLLISWDAPAEGAYGYYRITYGETGGNSPVQEFTVPVSKGTATISGLKPGVDYTITVYAVEYPYPFAGYYHRPISINYRTEIDKPSQHHHHHH | 3.8 nM | 19.8 nM | 3.4 nM | 3.4 nM | 0.677 nM | 0.000557 s⁻¹ | 471000 M⁻¹ s⁻¹ | 0.677 nM | 0.3 nM | – | – | – | – | – | – | – | – | –
2382E03 (designed binder, Anti-PCSK9 Adnectin, His6-tagged) MGVSDVPRDLEVVAATPTSLLISWDAPAGDGYGYYRITYGETGGNSPVQEFTVPVSKGTATISGLKPGVDYTITVYAVEFDFPGAGYYHRPISINYRTEIDKPSQHHHHHH | 3.7 nM | 10.8 nM | 2.4 nM | 2.4 nM | 2.94 nM | 0.000596 s⁻¹ | 220000 M⁻¹ s⁻¹ | 2.94 nM | 0.5 nM | – | – | – | – | – | – | – | – | –
2382F05 (designed binder, Anti-PCSK9 Adnectin, His6-tagged) MGVSDVPRDLEVVAATPTSLLISWDAPAEAGKHYGYYRITYGETGGNSPVQEFTVPVSKGTATISGLKPGVDYTITVYAVEFDFPGAGYYHRPISINYRTEIDKPSQHHHHHH | 3.8 nM | 14.6 nM | 2.4 nM | 2.4 nM | 4.54 nM | 0.00109 s⁻¹ | 244000 M⁻¹ s⁻¹ | 4.54 nM | 0.9 nM | – | – | – | – | – | – | – | – | –
2451C06 (designed binder, Anti-PCSK9 Adnectin, His6-tagged) MGVSDVPRDLEVVAATPTSLLISWDAPAGAASYGYYRITYGETGGNSPVQEFTVPVSKGTATISGLKPGVDYTITVYAVEFPFPGAGYYHRPISINYRTEIDKPSQHHHHHH | 5.5 nM | 24.7 nM | 1.2 nM | 1.2 nM | 1.27 nM | 0.000435 s⁻¹ | 347000 M⁻¹ s⁻¹ | 1.27 nM | 0.4 nM | – | – | – | – | – | – | – | – | –
2011H05 (designed binder, also called ATI001091) MGVSDVPRDLEVVAATPTSLLISWVPSSHAYGYYRITYGETGGNSPVQEFTVPVGVGTATISGLKPGVDYTITVYAVEYAFEGAGYYHRPISINYRTEIDKPSQHHHHHH | – | – | – | – | – | – | – | – | – | 2.7 nM | 0.08 nM | 198% | 12 nM | 8.85 nM | 177% | – | – | –
1784F03 (designed binder, Anti-PCSK9 Adnectin, His6-tagged) MGVSDVPRDLEVVAATPTSLLISWRPPIHAYGYYRITYGETGGNSPVQEFTVPIVEGTATISGLKPGVDYTITVYAVEYTFKHSGYYHRPISINYRTEIDKPSQHHHHHH | 1.6 nM | 106 nM | 2.01 nM | 2 nM | – | – | – | – | – | – | – | – | – | – | – | 106 nM | 26 nM | 1.9 nM
1923B02 (designed binder) MGVSDVPRDLEVVAATPTSLLISWTPPPKGYGYYRITYGETGGNSPVQEFTVPVGEGTATISGLKPGVDYTITVYAVEYTYNGAGYYHRPISINYRTEIDKPSQHHHHHH | – | – | – | – | – | – | – | – | – | 2.3 nM | 0.173 nM | 178% | 23 nM | – | – | – | – | –

The next lines start with the values.

EC50 [1] | EC50 (cynomolgus monkey PCSK9) | EC50 [2] | IC50 [2] | Kd [3] | koff [3] | kon [3] | Kd [4] | IC50 [5] | EC50 [6] | Kd [7] | LDLR Depletion (% inhibition at 75 nM) [8] | LDLR Depletion EC50 [8] | EC50 (nM), PCSK9-induced LDLR depletion from HepG2 cell surface [9] | percentage of PCSK9 inhibition at 75 nM [9] | IC50 (cynomolgus monkey PCSK9) | LDLR Depletion EC50 [10] | IC50 [11] | Binder
4.5 nM | 25.2 nM | 3.1 nM | 3.1 nM | 1.12 nM | 0.000291 s⁻¹ | 271000 M⁻¹ s⁻¹ | 1.12 nM | 1.1 nM | – | – | – | – | – | – | – | – | – | 2381G09 (designed binder, Anti-PCSK9 Adnectin, His6-tagged) MGVSDVPRDLEVVAATPTSLLISWDAPAGDGYGYYRITYGETGGNSPVQEFTVPVSKGTATISGLKPGVDYTITVYAVEFTFPGAGYYHRPISINYRTEIDKPSQHHHHHH
3.4 nM | 27.2 nM | 4 nM | 4 nM | 2.49 nM | 0.000879 s⁻¹ | 368000 M⁻¹ s⁻¹ | 2.49 nM | 0.9 nM | – | – | – | – | – | – | – | – | – | 2382C05 (designed binder, Anti-PCSK9 Adnectin, His6-tagged) MGVSDVPRDLEVVAATPTSLLISWDAPADGAYGYYRITYGETGGNSPVQEFTVPVSKGTATISGLKPGVDYTITVYAVEYSFPGAGYYHRPISINYRTEIDKPSQHHHHHH
3.6 nM | 20.1 nM | 2.9 nM | 2.9 nM | 1.11 nM | 0.000464 s⁻¹ | 419000 M⁻¹ s⁻¹ | 1.11 nM | 0.5 nM | – | – | – | – | – | – | – | – | – | 2382G04 (designed binder, Anti-PCSK9 Adnectin, His6-tagged) MGVSDVPRDLEVVAATPTSLLISWDAPAGGGYGYYRITYGETGGNSPVQEFTVPSSKGTATISGLKPGVDYTITVYAVEFDFPGAGYYHRPISINYRTEIDKPSQHHHHHH
3.8 nM | 12.6 nM | 2.8 nM | 2.8 nM | 0.604 nM | 0.00025 s⁻¹ | 436000 M⁻¹ s⁻¹ | 0.604 nM | 0.4 nM | – | – | – | – | – | – | – | – | – | 2382E05 (designed binder, Anti-PCSK9 Adnectin, His6-tagged) MGVSDVPRDLEVVAATPTSLLISWDAPAEGGYGYYRITYGETGGNSPVQEFTVPVSKGTATISGLKPGVDYTITVYAVEFDFPGAGYYHRPISINYRTEIDKPSQHHHHHH
3.3 nM | 11.8 nM | 3.3 nM | 3.3 nM | 1.53 nM | 0.000663 s⁻¹ | 354000 M⁻¹ s⁻¹ | 1.53 nM | 0.6 nM | – | – | – | – | – | – | – | – | – | 2382D03 (designed binder, Anti-PCSK9 Adnectin, His6-tagged) MGVSDVPRDLEVVAATPTSLLISWDAPADEAYGYYRITYGETGGNSPVQEFTVPVSKGTATISGLKPGVDYTITVYAVEFDFPGAGYYHRPISINYRTEIDKPSQHHHHHH
– | – | – | – | – | – | – | – | – | 1.2 nM | 0.09 nM | 105% | 10 nM | – | – | – | – | – | 1922G04 (designed binder, also called ATI001057; ATI-1057) MGVSDVPRDLEVVAATPTSLLISWRPPSHAYGYYRITYGETGGNSPVQEFTVPIGKGTATISGLKPGVDYTITVYAVEYPWKGSGYYHRPISINYRTEIDKPSQHHHHHH
2.3 nM | 118 nM | 2.7 nM | 1.3 nM | – | – | – | – | – | – | – | – | – | – | – | 118 nM | 16 nM | 2.4 nM | 1813E02 (designed binder, Anti-PCSK9 Adnectin, His6-tagged) MGVSDVPRDLEVVAATPTSLLISWSPPANGYGYYRITYGETGGNSPVQEFTVPVGRGTATISGLKPGVDYTITVYAVEYTYKGSGYYHRPISINYRTEIDKPSQHHHHHH
